First the molecules themselves.
B1: Nucleoprotein (Human coronavirus 229E), P15130 (parent)
chain: MATVKWADASEPQRGRQGRIPYSLYSPLLVDSEQPWKVIPRNLVPINKKDKNKLIGYWNVQKRFRTRKGKRVDLSPKLHFYYLGTGPHKDAKFRERVEGVVWVAVDGAKTEPTGYGVRRKNSEPEIPHFNQKLPNGVTVVEEPDSRAPSRSQSRSQSRGRGESKPQSRNPSSDRNHNSQDDIMKAVAAALKSLGFDKPQEKDKKSAKTGTPKPSRNQSPASSQTSAKSLARSQSSETKEQKHEMQKPRWKRQPNDDVTSNVTQCFGPRDLDHNFGSAGVVANGVKAKGYPQFAELVPSTAAMLFDSHIVSKESGNTVVLTFTTRVTVPKDHPHLGKFLEELNAFTREMQQHPLLNPSALEFNPSQTSPATAEPVRDEVSIETDIIDEVN

Variants of B1 are the subject of this experiment. The conditions noted are these: with pabp1_human PABPC1, P11940.
Sequence of pabp1_human PABPC1, P11940 (P11940 whole entry): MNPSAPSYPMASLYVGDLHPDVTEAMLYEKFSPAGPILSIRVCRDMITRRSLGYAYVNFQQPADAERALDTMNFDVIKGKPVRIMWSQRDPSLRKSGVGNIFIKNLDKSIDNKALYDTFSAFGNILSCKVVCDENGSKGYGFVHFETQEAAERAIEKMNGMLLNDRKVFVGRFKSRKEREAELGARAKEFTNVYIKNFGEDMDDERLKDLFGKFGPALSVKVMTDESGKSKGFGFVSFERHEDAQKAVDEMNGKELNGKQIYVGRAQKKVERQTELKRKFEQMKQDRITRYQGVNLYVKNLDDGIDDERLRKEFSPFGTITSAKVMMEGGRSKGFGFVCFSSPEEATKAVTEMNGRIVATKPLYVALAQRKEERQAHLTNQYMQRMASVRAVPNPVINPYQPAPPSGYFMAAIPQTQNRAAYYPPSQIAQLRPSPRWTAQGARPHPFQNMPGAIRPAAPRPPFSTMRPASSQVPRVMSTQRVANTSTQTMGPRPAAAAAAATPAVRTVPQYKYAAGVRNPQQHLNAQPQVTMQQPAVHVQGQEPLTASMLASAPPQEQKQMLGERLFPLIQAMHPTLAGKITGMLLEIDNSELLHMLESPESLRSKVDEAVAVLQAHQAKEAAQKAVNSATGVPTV
With L354A;N355G;P356G;A358G;F361A;N362A;P363G, the “effect of a mutation on the interaction” value was “disrupting interaction strength”.

The values above are taken from IntAct's records for PubMed 37100772.
